Measurements published in the nanobody polyreactivity screen of Harvey et al. (2022).

Experiment: yeast display, Sf9 membrane polyspecificity reagent, FACS + sequencing; frameworks hold sequencing errors
How it was run: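 Genes from sorted yeast were amplified by colony PCR, read by MiSeq 2 × 250 sequencing and filtered on CDR length. These cells carried a synthetic nanobody library in Saccharomyces cerevisiae BJ5465 and were sorted by FACS into low and high (top ~1%) gates on anti-HA and streptavidin fluorescence. Polyreactivity is labelled according to the gate of origin.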

Sequence	polyreactivity (PSR sort gate)
QVQLVESGGGLVQAGGSLRLSCAASGRIFPPYDMGWYRQAPGKETELVAAISYRGGSTYYADSVKGRFTISRDNAKNTVYLQMNSLKPEVTAVYYCNVGSRGGWDASDYDYWGQCTQVTVSS	high polyreactivity
QVQLVESGGGLVQAGGSLRLSCAASGRIFPRNAMGWYRQAPGKERELVAAISSGGGSTYYADSVKGRFTISRDNAKNTVYLQMNSLKPEDTAVYYCAKRAGWAGWYYRNDYWGQGTQVTVSS	high polyreactivity
QVQLVESGGGLVQAGGSLRLSCAASGRIFPRNAMGWYRQAPGKERELVASITSGGSTNYADSVKGRFTNSRDNAKNTVYLQMNSLKPEDTAVYSCAALYRQVTSPYRYYYWGQGTQVTVSS	high polyreactivity
QVQLVESGGGLVQAGGSLRLSCAASGRIFPRNTMGWYRQAPGKERELVAAISQSGGRTYYADSVKGRFTISRDYAKNTVYLQMNSLKPEDTAVYYCAAREYRYDMYYWGQGTQVTVSS	high polyreactivity
QVQLVESGGGLVQAGGSLRLSCAASGRIFPRYAMGWYRQAPGKERELVARITRRGGITYYADSVKGRFTISRDNAKNSVYLQMNSLKPEDTAVYYCNVDYYRGGDFSYGYDYWGQGTQVTVSS	high polyreactivity
QVQLVESGGGLVQAGGSLRLSCAASGRIFPRYAMGWYRQAPGKERELVARITRRGGITYYADSVKGRFTISRDNAKNTVYLQRNSLIPEDTAVYYCNVDYYSGGEFSYGYDYWGQGTQVTVSS	high polyreactivity
QVQLVESGGGLVQAGGSLRLSCAASGRIFPRYAMGWYRQAPGKERELVASISGTGSRTYYADSVKGRFTISRDNAKNTVYLQMNSLKPEDTAVYYCAAYSFRKLDYYWGQGTQVTVSS	high polyreactivity
QVQLVESGGGLVQAGGSLRLSCAASGRIFPTYTMGWYRQAPGKERELVAAIRRGGGRTYYADSVKGRFTISRDNAKNTVYLQMNSLKPEDTAVYYCAAPFYRQSLIEYDYWGQGTQVTVSS	high polyreactivity
QVQLVESGGGLVQAGGSLRLSCAASGRIFPTYTMGWYRQAPGKERELVAAIRRGGGRTYYADSVKGRFTISRDNAKNTVYLQMNSLKPEDTAVYYCNKDVYGYSRTGPRGYDYWGQGTQVTVSS	high polyreactivity
QVQLVESGGGLVQAGGSLRLSCAASGRIFPTYTMGWYRQAPGKERELVAHINRGGGSTYYADSVKGRFTISRDNAKYTVYLQMNSLKPEDTAVYYCAVDTYAYRGVSYWSERTYYYWGQGTQVTVSS	low polyreactivity
QVQLVESGGGLVQAGGSLRLSCAASGRIFPVNAMGWYRQAPGKERELVARISWRGGTYYADSVKGRFTISRDNAKNTVYLQMNSLKPEDTAVYYCAATLPSTSYWYHYGYWGQGTQVTVSS	high polyreactivity
QVQLVESGGGLVQAGGSLRLSCAASGRIFPVYAMGWYRQAPGKERELVATISYSGSSTYYADSVKGRFTISRDNAKNTVYLQMNSLKPEDTAVYYCNADAFGPPGVQYYYWGQGTQVTVSS	low polyreactivity
QVQLVESGGGLVQAGGSLRLSCAASGRIFPVYVMGSYREAPGKEREFVASISWRGGSTFYADSVKGRFTISRDNAKNTVYLQMNSLKPEDTAVYYCAADYWSSDSSRGTMYYWGQGTQVTVSS	low polyreactivity
QVQLVESGGGLVQAGGSLRLSCAASGRIFPWNAMGWYRQAPGKERELVAAISFSAGRTYYADSVKGRFTISRDNAKTTVYLQMTSLKPEDTAVYFCTKASYWGSGFDYWGQGTQVTVSS	low polyreactivity
QVQLVESGGGLVQAGGSLRLSCAASGRIFPWNDMGWYRQAPGKERELVAAITYRGGRTYYADSVKGRFTISRDNAKNTVYLQMNSLKPEDTAVYYCAKTRYFSVGPHWDYYYWGQGTQVTVSS	high polyreactivity
QVQLVESGGGLVQAGGSLRLSCAASGRIFPWYAMGWYRQAPGRVREFLAVISRSGGSTYYADSVKGRFTISRDNAKNTVYLQMNSLKPEDTAVYYCAADGKFEYDYWGQGTQVTVSS	low polyreactivity
QVQLVESGGGLVQAGGSLRLSCAASGRIFPYCAMGWYRQAPGKEREFVAAITSSGGSTYYADSVKGRFTISRDNAKNTVYLQMNSLKREDTAVYFCFAVRHYALYAGRPYDYWGQGTEVTVSS	low polyreactivity
QVQLVESGGGLVQAGGSLRLSCAASGRIFPYNAMGWSRQAPGKERELVASITSGGGSTYYADSVKGRFTISRDNAKNTVYLQMKSLKPEDTAVYYCSTRGYAWSSDKFGYWGQGTQVTVSS	high polyreactivity
QVQLVESGGGLVQAGGSLRLSCAASGRIFPYNAMGWYRHAPGKERELVAAITWSGGRTYYADSVKGRFTISRDNAKNTVYLQMNSLKPEDTAVYYCAASYRGRTNDYWGQGTQVTVSS	high polyreactivity
QVQLVESGGGLVQAGGSLRLSCAASGRIFPYNAMGWYRQAPGKERELVAAISGRGGSTYYADSVKGRFTISRDNAKNTVYLQMNSLKPEDTAVYYCAKRYVYPGAKHRFRGYDYWGQGTQVTVSS	high polyreactivity
QVQLVESGGGLVQAGGSLRLSCAASGRIFPYYAMGWYRQAPGKERELVAAISLSGGSTYYADSVKGRFTISRDNAKNTVYLQMNSLKPEDTAVYYCNAVASTYGYYWYPGLGYDYWGQGTQVTVSS	low polyreactivity
QVQLVESGGGLVQAGGSLRLSCAASGRIFPYYAMGWYRQAPGKERELVAAISQSGGRTYYADSVKGRFTISRDNAKNTVYLQMNSLKPEDTAVYYCIAYTYSSGYDYWGQGTQVTVSS	high polyreactivity

Sequence	polyreactivity (PSR sort gate)
QVQLVESGGGLVQAGGSLRLSCAASGRIFPYYAMGWYRQAPGKERELVAAISRSGGRTYYADSVKGRFTISRDNAKNTVYLQMNSLKPEDTAVYYCATPSKALPPHCRAILDYWGQGTQVTVSS	high polyreactivity
QVQLVESGGGLVQAGGSLRLSCAASGRIFPYYAMGWYRQAPGKERELVATISTAGSTNYADSVKGRFTISRDNAKNTVYLQMNSLKPEDTAVYYCATRNTWYHRGYDYWGQGTQVTVSS	low polyreactivity
QVQLVESGGGLVQAGGSLRLSCAASGRIFPYYDMGWYRQAPGKERELVAGITTSGGTTYADSVKGRFTISRDNAKNTVYLQMNSLKTEDTAVYYCNKLRLRLSRWTYDYWGHGTQVTVSS	low polyreactivity
QVQLVESGGGLVQAGGSLRLSCAASGRIFQFYAMGWYRQAPGKERELVAAITTGGSTKYADSVKGRFTISRDNAKNTVYLQMNSLKPEDTAVYYCAARAHYYVYRPGIRRYDYWGQGTQVTVSS	high polyreactivity
QVQLVESGGGLVQAGGSLRLSCAASGRIFQFYTMGWYRQAPGKERELVASISSAGSTNYADSVKGRFTISRDNAKNTVYLQMNSLKPEDTAVYYCRYTYYWMGYWGQGTQVTVSS	high polyreactivity
QVQLVESGGGLVQAGGSLRLSCAASGRIFQGYAMGWYRQAPGKERELVASIRTGGTTNYADSVKGRFTISRDNAKNTVYLQMNRLKPEDTAVYYCNRGYYSYYGGYYYWGQGTQVTVSS	high polyreactivity
QVQLVESGGGLVQAGGSLRLSCAASGRIFQGYVMGWYRQAPGKERELVAAITTGGSTYYADSVKGRFTISRDNAKNTVYLQMNSLKPEDTAVYYCNAVVYVSGYNPYIFGYWGQGTQVTVSS	low polyreactivity
QVQLVESGGGLVQAGGSLRLSCAASGRIFQKYAMGWYRQAPGKERELVAVITGRGGSTYYADSVKGRFTISRDNAKNTVFLLMNSLKKEDTAVYYCASVPGYWGQGTQVTVSS	high polyreactivity
QVQLVESGGGLVQAGGSLRLSCAASGRIFQLYAMGWYRLAPGKERELVAVISSGDRTYYADSVKGRFTISRDNAKNTVYLQMNSLKPEDTAVYYCAALGWHSGGSRWHGEYDYWGQGTQVTVSS	low polyreactivity
QVQLVESGGGLVQAGGSLRLSCAASGRIFQLYAMGWYRQAPGKERELVAANAWSGGSTYYADSVKGRFTISRDNAKNSVYLQMNSLKPEDTAVYDCAVEGYHGSRRYYYWGQGTQVTVSS	high polyreactivity
QVQLVESGGGLVQAGGSLRLSCAASGRIFQQNAMGWYRQAPGKERELVAAISSRGGSTYYADSVKGRFTISRDNAKNTVYLQMNSLKPEDTAVYYCARQYQSYRYRGYDYWGQGTQVTVSS	low polyreactivity
QVQLVESGGGLVQAGGSLRLSCAASGRIFQQNGMGWYRQAPGKERELVAGINSGVGTNYADSVKGRFTISRDNAKNTVYLQRNSLKPEDTAVYYCAKSQPSYSGDRDYWGPGTQVTVSS	low polyreactivity
QVQLVESGGGLVQAGGSLRLSCAASGRIFQRNAMGWYRLAPGKERELVAAITSTGVRTYYADSVKGRFTISRDNAKNTVYLQLNSLKPEDTAVYYCAVRGERRYIYDYWGQGTQVTVSS	high polyreactivity
QVQLVESGGGLVQAGGSLRLSCAASGRIFQRNVMGWYRQAPGKERELVASITGGGTTNYADSVKGRFTISRDNAKNTVYLQMNSLKPEDTAVYYCAKGYGASNDPGYVRKRYGYWGQGTQVTVSS	low polyreactivity
QVQLVESGGGLVQAGGSLRLSCAASGRIFQTYTMGWYRQAPGKERELVARITGGDSTYYADSVKGRFTISRDNAKNTVYLQMNSLKPEDTAVYYCAGEVWSYWGTFNYWGQGTQVTVSS	low polyreactivity
QVQLVESGGGLVQAGGSLRLSCAASGRIFQWNAMGWYRQAPGKERELVATISSRGGSTYYADSVKGRFTISRDNANNTVYLQMNSLKPEDTAVYYCAARYYAKYRSYDYWGLGTQVTVSS	high polyreactivity
QVQLVESGGGLVQAGGSLRLSCAASGRIFQYNAMGWYRQAPGKERELVAAISNSDSTNYADSVKGRFTISRDNAKNTDYLQLNRVKPEDTAVYYCARRYYFYRWVIPDYDYWGQGTQVTVSS	low polyreactivity
QVQLVESGGGLVQAGGSLRLSCAASGRIFQYNVMGWYRKAPGKERELVASISDGVGTNYADSVKGRFTISRDNAKNTVYLQMNSLKPEDTAVYYCARDLDPGYQYTGPYDYWGQGTQVTVSS	low polyreactivity
QVQLVESGGGLVQAGGSLRLSCAASGRIFQYNVMGWYRQAPGKERELVAAISSGGNTYYADSVKGRFTISRDNAKNTVNLPMNSLKPEDTAVYYCAADHYVPWPNYDYDYWGQGTQVTVSS	low polyreactivity
QVQLVESGGGLVQAGGSLRLSCAASGRIFQYYAMGWYRPAPGKEREFVAAISDSGSNTYYADSVMGRFTISRDNAKNTVYLQMNSLKPEDTAVYYSAALYATRALFYYWGQGTQGTVSS	low polyreactivity
QVQLVESGGGLVQAGGSLRLSCAASGRIFQYYAMGWYRQAPGKERELVAAISSRGGSTSYADSVKGRFTISRDKAKNTVYLQMNSLKPEDTAVYYCNAKSRISYWYDYWGQGTQVTVSS	high polyreactivity
